From article PMC7091491

Key:
[1] = molecular target: G12-insertion ClpX^ΔN single-chain pseudohexamer (E. coli) (UniProt P0A6H1)
[2] = molecular target: linker-deletion ClpX^ΔN single-chain pseudohexamer (E. coli) (UniProt P0A6H1)
[3] = molecular target: wild-type single-chain ClpX^ΔN pseudohexamer (E. coli) (UniProt P0A6H1)

KM of Arc-st11-ssrA degradation (0.1 μM ClpX, 0.3 μM ClpP) [1]: 4.1 µM
KM of Arc-st11-ssrA degradation (0.1 μM ClpX, 0.3 μM ClpP); approximate [2]: 20 µM
KM of Arc-st11-ssrA degradation (0.1 μM ClpX, 0.3 μM ClpP) [3]: 2.5 µM
Substance: Arc-st11-ssrA
